A word on the Vmax: it is the top rate of the reaction or transport when substrate is in excess. A word on the kcat: it is the number of substrate molecules converted per active site and unit of time at saturation. A word on the kcat/Km: it is the second-order rate constant that governs catalysis at low substrate concentration.

The subject of the data set is [H][C@]12[C@H](OC(=O)c3ccccc3)[C@]3(O)C[C@H](OC(=O)[C@H](O)[C@@H](NC(=O)c4ccccc4)c4ccccc4)C(C)=C([C@@H](O)C(=O)[C@]1(C)[C@@H](O[C@@H]1OC[C@@H](O)[C@H](O)[C@H]1O)C[C@@]1([H])OC[C@@]21OC(C)=O)C3(C)C. As to the kind of experiment: HPLC of 10-deacetyltaxol formation, nonlinear Michaelis–Menten fit. The data set is classed as biochemical, Lentinula edodes. The settings on record: XDT 0.039–5.0 mM; other conditions as described previously. An excerpt:
HPLC of 10-deacetyltaxol formation, nonlinear Michaelis–Menten fit on LXYL-P1–2
For LXYL-P1–2 (Lentinula edodes), the Km is given as 0.51 (±0.01) mmol L^−1, the Vmax came to 8.16 µM/min, the kcat was determined as 4.89 ± 0.1 s⁻¹ and the kcat/Km stood at 9670 ± 100 M⁻¹ s⁻¹.
For the substance LXYL-P1–2 (Lentinula edodes; T368E), the Km is recorded as 0.16 (±0.01) mmol L^−1, the Vmax is 3.84 µM/min, the kcat was found to be 2.3 ± 0.03 s⁻¹ and the kcat/Km amounted to 14200 ± 810 M⁻¹ s⁻¹.
Consider LXYL-P1–2 (Lentinula edodes; S91D), for which the Km is given as 0.17 (±0.01) mmol L^−1, the Vmax was 3.15 µM/min, the kcat was found to be 1.89 ± 0.04 s⁻¹ and the kcat/Km was 11300 ± 390 M⁻¹ s⁻¹.

These data come from article PMC6149855, “Improving the Catalytic Property of the Glycoside Hydrolase LXYL-P1–2 by Directed Evolution” (Molecules : A Journal of Synthetic Chemistry and Natural …, 2017).
